± gives the uncertainty stated by the source.
B1: Chromodomain-helicase-DNA-binding protein 5, residues 338 to 390; numbered along this chain, Q8TDI0 (parent)
chain: YETDHQDYCEVCQQGGEIILCDTCPRAYHLVCLDPELEKAPEGKWSCPHCEKE

Variants of: B1
Assay: abundance fitness (aPCA) (normalised: wild type 0, dead -1); higher = more abundant; growth selection in yeast, the domain comes from the species named
Conditions: Homo sapiens

Variant | abundance fitness
E17L | -0.096 ± 0.12
E17H | -0.435 ± 0.32
E17D | -0.182 ± 0.16
E17N | 0.2 ± 0.2
E17G | -0.07 ± 0.09
E17R | -0.189 ± 0.1
E17T | -0.109 ± 0.19
E17I | 0.227 ± 0.21
E17P | -0.445 ± 0.17
E17V | -0.358 ± 0.1
E17M | 0.1 ± 0.18
E17K | 0.105 ± 0.16
E17Q | -0.377 ± 0.21
E17C | -0.105 ± 0.13
E17F | -0.213 ± 0.18
E17S | -0.354 ± 0.13
E17W | 0.188 ± 0.14
L20P | 0.234 ± 0.14
L20E | -0.119 ± 0.16
L20S | 0.233 ± 0.1
L20T | 0.258 ± 0.14
L20R | 0.266 ± 0.092
L20G | 0.297 ± 0.087
L20M | 0.371 ± 0.17

Variant | abundance fitness
L20Y | 0.169 ± 0.15
L20K | 0.099 ± 0.14
L20A | 0.139 ± 0.12
L20F | 0.078 ± 0.14
L20Q | 0.414 ± 0.16
L20D | 0.127 ± 0.17
L20N | 0.091 ± 0.16
L20I | -0.095 ± 0.15
L20H | 0.224 ± 0.15
L20V | 0.051 ± 0.1
C24E | -0.979 ± 0.21
C24D | -1.16 ± 0.35
G15Y | 0.083 ± 0.17
G15C | 0.021 ± 0.14
G15I | -0.414 ± 0.39
G15L | -0.209 ± 0.14
G15K | 0.155 ± 0.16
G15D | -0.167 ± 0.18
G15V | -0.143 ± 0.12
G15W | -0.136 ± 0.14
G15T | -0.014 ± 0.14
G15M | 0.143 ± 0.2
G15E | -0.112 ± 0.16
G15N | 0.116 ± 0.19

Variant | abundance fitness
G15P | -0.553 ± 0.19
G15A | 0.176 ± 0.13
G15R | 0.141 ± 0.09
G15Q | -0.103 ± 0.15
I19M | 0.256 ± 0.13
I19E | -0.056 ± 0.13
I19H | 0.128 ± 0.19
I19Q | 0.029 ± 0.15
I19S | -0.104 ± 0.12
I19T | 0.303 ± 0.12
I19P | -1.07 ± 0.21
I19L | 0.121 ± 0.11
I19F | 0.051 ± 0.22
I19G | -0.177 ± 0.094
I19C | -0.137 ± 0.16
I19R | 0.115 ± 0.088
I19D | -0.023 ± 0.15
I19Y | -0.226 ± 0.2
I19K | 0.315 ± 0.16
I19A | 0.109 ± 0.1
I19N | 0.161 ± 0.16
I19V | -0.085 ± 0.11
D22L | -0.059 ± 0.12
D22T | 0.187 ± 0.17

Variant | abundance fitness
D22K | -0.171 ± 0.19
D22W | -0.373 ± 0.17
D22N | -0.015 ± 0.14
D22H | -0.078 ± 0.24
D22Y | 0.088 ± 0.21
D22C | -0.432 ± 0.15
D22A | 0.149 ± 0.15
D22P | 0.111 ± 0.13
D22R | -0.067 ± 0.1
D22F | -0.597 ± 0.21
D22E | -0.101 ± 0.2
D22M | -0.185 ± 0.14
D22S | -0.244 ± 0.12
D22I | -0.177 ± 0.21
T23I | -0.135 ± 0.2
T23G | -0.305 ± 0.11
T23K | -0.457 ± 0.22
T23Q | -0.15 ± 0.2
T23P | -0.922 ± 0.22
T23M | 0.114 ± 0.17
T23S | -0.01 ± 0.12
T23A | -0.545 ± 0.13
T23D | -0.09 ± 0.17
T23W | -0.443 ± 0.17

Variant | abundance fitness
T23E | 0.026 ± 0.17
T23C | -0.177 ± 0.23
T23L | -0.07 ± 0.12
T23N | 0.034 ± 0.17
T23H | -0.397 ± 0.23
T23Y | -0.161 ± 0.19
T23F | 0.166 ± 0.16
T23R | -0.12 ± 0.12
Q14N | -0.065 ± 0.17
Q14M | 0.084 ± 0.16
Q14S | 0 ± 0.1
Q14W | -0.237 ± 0.17
Q14T | 0.193 ± 0.14
Q14V | -0.107 ± 0.12
Q14R | -0.019 ± 0.099
Q14P | -1.04 ± 0.23
Q14I | -0.385 ± 0.2
Q14L | -0.011 ± 0.11
Q14Y | -0.001 ± 0.22
Q14H | -0.105 ± 0.17
I18R | 0.021 ± 0.1
I18V | -0.286 ± 0.12
I18P | -0.228 ± 0.17
I18D | -0.172 ± 0.17

Variant | abundance fitness
I18Y | 0.145 ± 0.18
I18E | -0.454 ± 0.19
I18C | -0.508 ± 0.15
I18N | 0.039 ± 0.22
I18H | 0.03 ± 0.18
I18S | 0.065 ± 0.11
I18G | 0.047 ± 0.097
I18Q | 0.28 ± 0.18
I18M | 0.007 ± 0.14
I18T | 0.021 ± 0.15
I18F | -0.058 ± 0.16
I18W | -0.02 ± 0.12
I18K | 0.137 ± 0.22
I18A | 0.177 ± 0.12
I18L | -0.098 ± 0.1
C21N | -0.889 ± 0.27
C21A | -0.563 ± 0.14
C21V | -0.519 ± 0.13
C21R | -0.929 ± 0.14
C21G | -0.853 ± 0.11
C21W | -1.08 ± 0.23
C21S | -0.811 ± 0.13
C21Q | -0.973 ± 0.28
C21K | -0.805 ± 0.2

Variant | abundance fitness
C21Y | -0.739 ± 0.17
C21F | -1.22 ± 0.28
C21T | -0.995 ± 0.23
C21E | -1.08 ± 0.28
C21P | -0.907 ± 0.2
C21D | -0.921 ± 0.17
C21M | -0.701 ± 0.18
C21L | -0.872 ± 0.15
C21I | -0.912 ± 0.35
G16H | 0.435 ± 0.22
G16Y | 0.193 ± 0.2
G16Q | 0.183 ± 0.23
G16A | -0.037 ± 0.11
G16R | 0.098 ± 0.1
G16I | -0.195 ± 0.28
G16E | 0.027 ± 0.11
G16N | 0.259 ± 0.19
G16M | 0.255 ± 0.14
G16C | -0.336 ± 0.27
G16L | 0.239 ± 0.11
G16T | 0.265 ± 0.13
G16S | 0.114 ± 0.13
G16V | -0.17 ± 0.1
